Measured values: article PMC8160712

Biological target: Recombinant protein G from Escherichia coli (group G Streptococci) (UniProt P06654)
Assay: total internal reflected imaging ellipsometry (TIRIE); protein G immobilised on EDC/NHS-activated MUA gold surface (100 μg/mL in the whole-process run); antibody flowed over for 20 min, rinsed with PBST; real-time grayscale signal

Row | Substance | TIRIE signal increase [grayscale] | TIRIE signal increment with protein G
1 | Anti-CD9 antibody [MEM-61] | 900 | 640
2 | Anti-CD63 antibody [MEM-259] | 900 | 650
